Among the data in patent publication US20200297837A1 are MFI values, retold here.

Where two headings read alike, the source gives them in different places.

Test [1] concerns the target T1, HLA-E*01033 on the HLA-E*01033-transfected derivative of the K562 cell line (human), P13747. Put plainly: HLA-E stabilization assay on K562/HLA-E cells, overnight 26 C, anti-HLA-E mAb staining, flow cytometry (without peptide: 1400).
The target in test [2] is T1, HLA-E*01033 on the ….

B1: HIV-1 Gag derived peptide … (SEQ ID NO: 3) (peptide)
peptide: TALSEGATP
modifications: not checked
Regarding B1, the MFI in test [1] came to 8530 MFI.

B2: HIV-1 Pol derived peptide … (SEQ ID NO: 16) (peptide)
peptide: PEIVIYDYM
modifications: not checked
On to B2, for which the MFI in test [2] stood at 7320 MFI.

B3: MBt derived peptide … (SEQ ID NO: 15) (peptide)
peptide: VMATRRNVL
modifications: not checked
In the case of B3, the MFI in test [2] was determined as 7520 MFI.

B4: HIV-1 Gag derived peptide … (SEQ ID NO: 1) (peptide)
peptide: RMYSPVSIL
modifications: not checked
B4: the MFI in test [1] turned out to be 8240 MFI.

B5: HIV-1 Pol derived peptide … (SEQ ID NO: 17) (peptide)
peptide: RIRTWKSLV
modifications: not checked
The molecule B5 yielded an MFI in test [1] of 6580 MFI.
